“Also recorded” adds a separate entry of the source.
How the values were obtained:
RAGE protein on SKOV3 = molecular target: T1, RAGE protein on SKOV3 (Homo sapiens, UniProt Q15109); test: Immunofluorescent staining of RAGE basal expression on SKOV3 cells; assay type: cell-based; settings: primary antibody 4 μg/ml
T1 construct: RAGE protein expressed on the extracellular membrane of cancer cells in its native conformation; endogenous in cells; host or cells: SKOV3 (ECACC)
Protocol: To screen binding of α-RAGE antibodies by immunofluorescence, 1.5×10^4 SKOV3 cells/well (obtained from the European Collection of Authenticated Cell Cultures, ECACC, Public Health England, UK) were seeded in 8-well chamber slides (Ibidi) in 300 μl of stripped medium and cultured for 48 h in a humidified, 5% CO2 in air atmosphere incubator at 37° C. After culture, cells were fixed with 4% paraformaldehyde (Sigma) for 20 minutes, permeabilized with 0.1% Triton X-100 (Sigma) for 10 minutes at 4° C. and blocked with 3% BSA in PBS for 1 h. Primary antibodies diluted at 4 μg/ml in 3% BSA-PBS were incubated overnight at 4° C., followed by 1 h incubation with Alexa-488 secondary antibody. Cells were washed with PBS extensively between all steps, counterstained before imaging with Hoechst (Life Technologies™) and imaged using a LSM710 confocal fluorescence microscopy system (Zeiss, UK).

RAGE [1] = molecular target: RAGE (Homo sapiens, UniProt Q15109); test: Binding target blocking assay by immunofluorescence on HEC-1A cells; assay type: cell-based; design: endogenous in cells; host or cells: HEC-1A (ECACC); settings: then antibody at 4 μg/ml
Protocol: To proof that HA9 shares similar binding epitope as other α-RAGE antibodies, an immunofluorescence approach was used. For this purpose, 1.5×10^4 HEC1A cells/well (obtained from the European Collection of Authenticated Cell Cultures, ECACC, Public Health England, UK) were seeded in 8-well chamber slides (Ibidi) in 300 μl of stripped medium and cultured for 24 h in a humidified, 5% CO2 in air atmosphere incubator at 37° C. After culture, cells were fixed with 4% paraformaldehyde (Sigma) for 20 minutes, permeabilized with 0.1% Triton X-100 (Sigma) for 10 minutes at 4° C. and blocked with 3% BSA in PBS for 1 h. Cells were then pre-incubated with a primary antibody against RAGE at a concentration in excess (20 μg/ml in 3% BSA in PBS for 1 h) to block the specific epitope they bind, before cells were incubated with the α-RAGE antibody of interest at 4 μg/ml in 3% BSA-PBS overnight at 4° C. This was followed by 1 h incubation with Alexa-fluorophore-conjugated secondary antibodies. Cells were washed with PBS extensively between all steps, counterstained before imaging with Hoechst (Life Technologies™) and imaged using a LSM710 confocal fluorescence microscopy system (Zeiss, UK). The mean intensity of fluorescence was obtained using imageJ by measuring the integrated density per imaged field, normalised by the number of cells in the respective field and obtaining the mean from >10 fields obtained per condition. A decrease in fluorescence in the pre-blocked condition compared with the not-pre-blocked condition means both antibodies share similar epitope of binding on the same protein.

[2] = molecular target: T2, RAGE recombinant protein (Human rRAGE) (Homo sapiens, UniProt Q15109); test: Surface plasmon resonance binding kinetics (Biacore T200), recombinant protein analyte; settings: analyte RAGE recombinant protein, or RAGE synthetic peptide, not separated
T2 construct: Human rRAGE=Full-length RAGE recombinant protein from Merck; purchased Merck
Protocol: For on-rate and off-rate screening, Biacore™ T200 system (Cytiva, Uppsala, Sweden) was used to perform SPR analysis with 1×HBS-EP+ buffer (0.01M Hepes, 0.15M NaCl, 0.003M ethylenediaminetetraacetic acid, and 0.05% Surfactant P20, pH 7.4) (BR100669) used as sample and running buffer. The analysis temperature at the sensor chip surface and within the compartment was set to 25° C. Firstly, pH scouting with 10 mM sodium acetate buffer 4.0 (BR-1003-49), 10 mM sodium acetate buffer 4.5 (BR-1003-50), 10 mM sodium acetate buffer 5.0 (BR-1003-51) and 10 mM sodium acetate buffer 5.5 (BR-1003-52) was performed to identify the optimal pH required for ligand (α-RAGE antibodies) immobilization. This was followed by diluting the ligand with the appropriate Acetate buffer to at least 10 μg/mL. The ligand immobilization on the surface Series S Sensor Chip CM5 (29-1496-03, Cytiva) was performed using the Amine Coupling Kit (BR100050, Cytiva) containing 1-Etyhyl-3-(3-dimethylaminopropyl)-carbodiimide hydrochloride (EDC), N-Hydroxysuccinimide (NHS) and 1.0M ethanolamine-HcL PH 8.5 in accordance with the manufacturer's instructions. For each experimental run, the ligand was immobilized in flow cells 2 or 4 while flow cells 1 or 3 were left unmodified. Flow cells 2 and 4 were used as active flow cells while flow cells 1 and 3 were used as reference flow cells. Ligand immobilization levels were typically within the range 500-900 RU for the kinetic experiments and injected with a flow rate of 10 μL/min and contact time of 300 s. Analytes (RAGE recombinant protein and synthetic peptides) were injected for 120 s with a flow rate of 30 μL/min and dissociation time of 600 s run in order of increasing concentration over the reference and active flow cells using a multi-cycle kinetic approach with five-seven concentration range. Following each binding cycle, the surface was regenerated with a 30 s injection of 10 mM Glycine-HcL, pH 2.5 regeneration solution (BR-1003-56), removing the bound antibody with a contact time of 30 s, flow rate of 30 μL/min and a stabilization period of Os. […]

RAGE [3] = test: Western blot on protein extracts from ovarian cancer cell lines (OCCL); design: species or system human; settings: whole-cell extracts of SKOV3, OVCAR3, A2780 and cisplatin-resistant lines; antibody 1 μg/mL
Protocol: Confluent cultures of cells were lysed in ice cold RIPA buffer (Sigma-Aldrich), whole-cell protein extracts were quantified with DC protein assay, 30 μg/lane were resolved by SDS-PAGE on TGX precast gels, transferred to mini PDVF membranes, blocked 1 h at RT in 5% Bovine Serum Albumin (BSA) in TBST (Tris Buffered Saline, 0.1% Tween-20) and incubated o/n at 4° C. in the same solution with 1 μg/mL of mA9 (sc-365154, Santa Cruz Biotechnology) antibody, mHA9 antibody or hHA9 antibody, or GAPDH (Santa Cruz Biotechnology) as loading control. Membranes were then washed with TBST and incubated 1 h at RT with 0.1 μg/mL of IgG horseradish peroxidase secondary antibody (GE Healthcare) or […] of Goat F(ab′) 2 Anti-Mouse IgG-F(ab′) 2 horseradish peroxidase secondary antibody (Abcam). Target proteins were visualised after incubation with Clarity Western ECL Substrate and imaged using a ChemiDoc System Bio-Rad Imager. Bands were quantified with ImageLab software. Unless stated all the materials specified above were obtained from Bio-Rad Laboratories.

T1 sequence (Q15109 23-404): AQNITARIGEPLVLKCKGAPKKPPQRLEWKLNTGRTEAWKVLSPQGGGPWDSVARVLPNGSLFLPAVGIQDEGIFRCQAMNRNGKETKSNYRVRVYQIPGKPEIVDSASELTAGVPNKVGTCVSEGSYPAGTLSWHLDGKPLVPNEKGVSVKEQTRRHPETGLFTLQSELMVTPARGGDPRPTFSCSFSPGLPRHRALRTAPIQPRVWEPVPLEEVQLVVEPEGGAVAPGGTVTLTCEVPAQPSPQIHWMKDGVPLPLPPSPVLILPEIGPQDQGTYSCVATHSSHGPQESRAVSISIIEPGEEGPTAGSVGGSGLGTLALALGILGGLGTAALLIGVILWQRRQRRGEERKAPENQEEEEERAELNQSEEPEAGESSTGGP
Sequence of RAGE (Q15109 23-317 limits assumed): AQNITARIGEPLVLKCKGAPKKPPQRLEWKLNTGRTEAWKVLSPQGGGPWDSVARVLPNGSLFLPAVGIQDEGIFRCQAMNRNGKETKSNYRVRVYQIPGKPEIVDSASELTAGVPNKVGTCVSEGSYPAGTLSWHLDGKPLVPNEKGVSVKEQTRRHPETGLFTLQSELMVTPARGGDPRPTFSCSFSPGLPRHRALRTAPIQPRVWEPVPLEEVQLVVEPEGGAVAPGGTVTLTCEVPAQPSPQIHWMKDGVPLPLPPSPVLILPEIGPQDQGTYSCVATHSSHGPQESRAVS
T2 sequence (Q15109 23-404): as the sequence (Q15109 23-404) above
Sequence of RAGE (Homo sapiens, UniProt Q15109) (Q15109 23-404): as above

immunofluorescent signal (basal RAGE staining) (RAGE protein on SKOV3; compared with other clones and AB11451, listed as chimeric HA9): most intense immunofluorescent signal
immunofluorescent signal (basal RAGE staining) (RAGE protein on SKOV3; compared with other clones and AB11451, listed as chimeric-HA9): higher intensity
staining after Abcam antibody pre-blocking (RAGE [1]; Abcam antibody 20 μg/ml pre-incubation): did not result in a decrease
staining after N16 pre-blocking (RAGE [1]; N16 20 μg/ml pre-incubation): statistically significant decrease
affinity interaction by SPR (summary statement) [2]: weaker affinity
B1: hHA9: chimeric humanised format of anti-RAGE antibody clone HA9 (antibody, V domains shown)
VH: EVKLVETGGGLVQPGRPMKLSCVASGFTLSDHWMNWVRQSPEKGLEWVAQIRNRPYKFEKYYSDSVKGRFTISRDDSKNSVYLQMNNLRAEDMGIYYCSSYRYGLAYWGQGTLVTVST
VL: DNLLTQSPAILSVSPGERVSFSCRASQTIDTRIHWYQQRKNGSPRLLIRYISESLSGIPSRFSGSGSGTEFTLTINSVESEDIADYYCQQTESWPITFGSGTKLEIK
immunofluorescent signal (basal RAGE staining) (RAGE protein on SKOV3; compared with other clones and AB11451): highest detection of RAGE basal expression
affinity interaction by SPR (summary statement) ([2]; listed as chimeric-HA9): weaker affinity than AB11451 antibody or the commercial antibodies
RAGE isoform detected by western blot (RAGE [3]): able to detect expression levels of full-length transmembrane RAGE; also recorded: detection of high levels of full-length RAGE isoform
